In data set [1] the target is T1, Alexa 488-T70C-b5:P450 17A1 complex (Homo sapiens, UniProt P00167+P05093, T70C).
T1 construct: made in house; host or cells: Escherichia coli (P450 17A1 in JM109; T70C-b5 plasmid in DH5α)
The data set can be described thus: Peptide addition to Alexa 488-T70C-b5:P450 17A1 complex (gain of fluorescence). It is filed as binding. The conditions noted are these: even at a concentration of 160 μM; data not presented. The text has this: Peptides were obtained corresponding to the putative binding sites of P450 17A1 and b5 (see Experimental procedures section and Fig. S7).

For the next data set, the target named is T2, P450 17A1 (Homo sapiens, UniProt P05093).
T2 construct: made in house; host or cells: Escherichia coli (P450 17A1 in JM109)
T2 sequence (P00167 whole entry partner, one chain of several): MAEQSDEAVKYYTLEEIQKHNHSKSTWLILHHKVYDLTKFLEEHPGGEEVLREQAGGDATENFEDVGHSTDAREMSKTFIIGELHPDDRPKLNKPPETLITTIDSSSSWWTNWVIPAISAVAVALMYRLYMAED
The data set can be described thus: Inhibition of reconstituted P450 17A1 steroid oxidation reactions by peptides. Format: biochemical. The text has this:
The “b5 peptide” corresponds to residues 43 to 52 of b5, and the “17A1 peptide” corresponds to residues 347 to 358 of P450 17A1 (see Experimental procedures section and Fig. S7).

For data set [2], the target named is P450cam (Pseudomonas putida) (UniProt P00183). Nature of the data set: fluorescence titration. The conditions noted are these: cited from earlier work.
Chain of P450cam (Pseudomonas putida) (P00183 2-415): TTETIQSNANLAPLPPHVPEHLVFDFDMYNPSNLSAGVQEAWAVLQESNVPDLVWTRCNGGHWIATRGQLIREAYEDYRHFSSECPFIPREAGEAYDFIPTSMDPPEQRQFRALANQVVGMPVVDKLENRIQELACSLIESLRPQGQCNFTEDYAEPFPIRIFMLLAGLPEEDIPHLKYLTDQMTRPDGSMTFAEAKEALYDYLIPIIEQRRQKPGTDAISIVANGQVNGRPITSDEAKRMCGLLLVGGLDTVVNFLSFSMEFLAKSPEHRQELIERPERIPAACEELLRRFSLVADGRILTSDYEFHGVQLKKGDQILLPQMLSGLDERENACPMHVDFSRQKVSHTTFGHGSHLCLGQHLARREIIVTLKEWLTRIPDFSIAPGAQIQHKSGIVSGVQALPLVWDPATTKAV
The target in a further data set is cytochrome c (UniProt P99999). The data set can be described thus: fluorescence titration. The conditions noted are these: cited from earlier work.
Chain of cytochrome c (P99999 2-105): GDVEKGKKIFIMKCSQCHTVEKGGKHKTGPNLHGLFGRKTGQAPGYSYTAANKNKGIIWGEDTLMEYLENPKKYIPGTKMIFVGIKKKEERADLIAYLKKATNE
The next data set addresses metmyoglobin (UniProt P02144). Nature of the data set: fluorescence titration. As to conditions: cited from earlier work.
The target in data set [3] is T3, WT P450 17A1 (human, UniProt P05093 1-508).
T3 construct: cytochrome P450 17A1, human; approximate Mr 57 kDa; also called cytochrome P450 17A1; CYP17A1; source: E. coli JM109 (pCW vector), purified (Ni2+-NTA)
T3 sequence (looked up): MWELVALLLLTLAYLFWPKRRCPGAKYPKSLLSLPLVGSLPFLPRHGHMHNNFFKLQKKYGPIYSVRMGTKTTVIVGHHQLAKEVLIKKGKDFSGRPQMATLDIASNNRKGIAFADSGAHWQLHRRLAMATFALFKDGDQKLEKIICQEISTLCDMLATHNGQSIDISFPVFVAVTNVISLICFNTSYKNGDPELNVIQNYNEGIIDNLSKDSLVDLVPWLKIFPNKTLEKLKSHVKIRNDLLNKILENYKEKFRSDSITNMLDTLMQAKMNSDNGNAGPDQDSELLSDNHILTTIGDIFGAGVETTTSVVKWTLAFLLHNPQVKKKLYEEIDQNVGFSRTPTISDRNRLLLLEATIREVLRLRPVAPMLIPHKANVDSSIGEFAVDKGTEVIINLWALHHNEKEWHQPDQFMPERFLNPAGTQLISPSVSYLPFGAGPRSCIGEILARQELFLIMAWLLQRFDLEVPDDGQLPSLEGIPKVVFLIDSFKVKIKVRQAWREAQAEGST
Nature of the data set: other fluorescence titration; as a1, with progesterone present at 10 μM. As to conditions: both partners purified.

In data set [4] the target is T3, WT P450 17A1. Nature of the data set: other fluorescence titration; as a1, with pregnenolone present at 10 μM. As to conditions: both partners purified.
Data set [5] deals with T3, WT P450 17A1. Nature of the data set: other fluorescence titration; as a1, with 17-OH pregnenolone present at 10 μM. The conditions noted are these: both partners purified.
Data set [6] has as its target T3, WT P450 17A1. The data set can be described thus: stopped-flow fluorescence; dissociation: preformed Alexa 488-T70C-b5:P450 17A1 complex mixed with 30 μM unlabeled b5; excitation 488 nm, emission >530 nm, single exponential. As to conditions: both partners purified.
Data set [7] addresses T3, WT P450 17A1. Nature of the data set: other fluorescence titration; 50 nM Alexa 488-T70C-b5 in 100 mM potassium phosphate pH 7.4 titrated with P450 17A1 (WT or variant); excitation 480 nm, emission 513 nm; quadratic fit; no substrate; no phospholipid vesicles; apparent Kd. As to conditions: both partners purified.
Data set [8] has as its target T3, WT P450 17A1. Nature of the data set: other fluorescence titration; as a1, with 17-OH progesterone present at 10 μM. The conditions noted are these: both partners purified.
Substrate in data set [9]: CC(=O)[C@H]1CC[C@H]2[C@@H]3CCC4=CC(=O)CC[C@]4(C)[C@H]3CC[C@]12C
Nature of the data set: purified protein, by the assay type. The conditions noted are these: other: 17α-hydroxylation, pH 7.4, 30.0 °C.

Substrate in data set [10]: CC(=O)[C@@]1(O)CCC2C3CC=C4C[C@@H](O)CC[C@]4(C)C3CC[C@@]21C
Nature of the data set: purified protein, by the assay type. The conditions noted are these: other: lyase reaction (conversion to androstenedione or DHEA), pH 7.4, 30.0 °C.

Substrate in data set [11]: CC(=O)C1CCC2C3CC=C4C[C@@H](O)CC[C@]4(C)C3CC[C@]12C
The data set can be described thus: purified protein, by the assay type. The conditions noted are these: other: 17α-hydroxylation, pH 7.4, 30.0 °C.

Data set [12] deals with T4, WT P450 17A1 (Homo sapiens, UniProt P05093).
T4 sequence (P05093 1-508): T3 sequence (looked up)
Format: biochemical. The arrangement: made in house; host or cells: Escherichia coli (P450 17A1 in JM109). How it is done:
Figure S4. Stimulation of lyase activities by b5, T70C- b5, and NanoTemper Blue-T70C-b5. Catalytic assays for the lyase reactions were performed and analyzed as described in the main text.

Changes are numbered by the printed parent chain. Names and notes keep the numbering of the source. “Also recorded” adds a separate entry of the source. Ends that are not written are not given here.

T1 sequence (P00167 whole entry T70C, one chain of several): as the sequence (P00167 whole entry partner, one chain of several) above, with T70C counted along it
Chain of metmyoglobin (P02144 2-154): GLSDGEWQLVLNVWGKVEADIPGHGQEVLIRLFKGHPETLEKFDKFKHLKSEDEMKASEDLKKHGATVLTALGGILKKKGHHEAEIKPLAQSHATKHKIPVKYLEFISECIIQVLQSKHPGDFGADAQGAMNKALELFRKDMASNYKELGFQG

As to “EHPGGEEVLRE [b5 peptide, E H P G G E E V L R E]”, the “gain of fluorescence of Alexa 488-T70C-b5:P450 17A1 complex” value in data set [1] is recorded as “did not result in a gain of fluorescence”.
For “RNRLLLLEATIR [P450 peptide, R N R L L L L E A T I R]”, on P450 17A1, the “inhibition of progesterone 17α-hydroxylation” value is listed as “only at the very highest concentration”. The “inhibition of lyase reaction (17α-OH pregnenolone)” value against P450 17A1 (b5 present at 10-fold higher concentration than P450, listed as P450 17A1 peptide) is given as “more inhibitory to the lyase reaction (17α-OH pregnenolone) than the b5 peptide; also recorded: weak inhibition”.
As to “cytochrome b5 (T65C labeled) (from UniProt P00173)”, the Kd (in [2]; in the data set with cytochrome c; with metmyoglobin) was 1000 nM throughout.

B1: Alexa 488-T70C-b5 (natural protein, human)
chain: MAEQSDEAVKYYTLEEIQKHNHSKSTWLILHHKVYDLTKFLEEHPGGEEVLREQAGGDATENFEDVGHSCDAREMSKTFIIGELHPDDRPKLNKPPETLITTIDSSSS
modifications: Alexa Fluor 488 maleimide conjugated to the cysteine of T70C; extent of modification 74%
notes: cytochrome b5 (CYB5A, b5), human, T70C; printed theoretical mass 16.9 kDa; Heme protein; also called labeled b5; fluorescently labeled variant of human b5
As for B1, the Kd was found to be 5.8 ± 2.3 nM in the data set with WT P450 17A1 [3]; 12 ± 5 nM in the data set with WT P450 17A1 [4]; 2.2 ± 1 nM with WT P450 17A1 [5]; 2.5 ± 0.6 nM in the data set with WT P450 17A1 [7]; 6 ± 1 nM with WT P450 17A1 [8]. Also, the dissociation rate constant (koff) – broadly, a measure of how fast the partners let go of each other – with WT P450 17A1 [6] worked out at 1.9 ± 0.2 s⁻¹.

B2: WT P450 17A1 (Homo sapiens) (protein)
chain: T3 sequence (looked up)
Turning to B2, in data set [9] (WT), the Michaelis-Menten constant (Km) (in general, the substrate concentration at which the rate is half of its maximum) came to 7.8 ± 1.4 µM; the catalytic constant (kcat) – broadly, the maximal rate divided by the concentration of active sites – stood at 0.107 ± 0.00833 s⁻¹; the kcat/Km – broadly, the second-order rate constant that governs catalysis at low substrate concentration – is 13700 M⁻¹ s⁻¹. Moreover, in [10] (WT), the Km was found to be 6.7 ± 2.1 µM, the catalytic constant (kcat) worked out at 0.0917 s⁻¹ and the specificity constant (kcat/Km) was determined as 13800 M⁻¹ s⁻¹. Besides, in [11] (WT), the Michaelis constant (Km) amounted to 0.47 ± 0.20 µM, the kcat is 0.0147 ± 0.000833 s⁻¹ and the kcat/Km came to 31700 M⁻¹ s⁻¹.

B3: P450 17A1 R347H variant (Homo sapiens; R347H) (protein)
chain: T3 sequence (looked up) with R347H
B3: in data set [9] (R347H), the Km stood at 8.1 ± 2.2 µM, the kcat worked out at 0.003 ± 0.000333 s⁻¹ and the kcat/Km worked out at 333 M⁻¹ s⁻¹. In [10] (R347H), the Michaelis constant (Km) is 4.8 ± 1.7 µM, the catalytic constant (kcat) was found to be 0.000717 s⁻¹ and the specificity constant (kcat/Km) is 150 M⁻¹ s⁻¹. For the same molecule, in data set [11] (R347H), the Km was found to be 1.5 ± 0.5 µM, the kcat was found to be 0.00883 ± 0.000667 s⁻¹ and the kcat/Km is 5830 M⁻¹ s⁻¹.

B4: P450 17A1 E305G variant (Homo sapiens; E305G) (protein)
chain: T3 sequence (looked up) with E305G
Regarding B4, in data set [9] (E305G), the Km is 3.1 ± 0.4 µM, the turnover number (kcat) was 0.00317 ± 0.000167 s⁻¹ and the catalytic efficiency (kcat/Km) stood at 1000 M⁻¹ s⁻¹. In addition, in data set [10] (E305G), the Km came out at 9.4 ± 3.7 µM, the kcat stood at 0.000933 s⁻¹ and the kcat/Km is 100 M⁻¹ s⁻¹. Further, in data set [11] (E305G), the Km came out at 5.7 ± 4.6 µM, the catalytic constant (kcat) is 0.00117 ± 0.000333 s⁻¹ and the kcat/Km came out at 167 M⁻¹ s⁻¹.

B5: P450 17A1 R358Q variant (Homo sapiens; R358Q) (protein)
chain: T3 sequence (looked up) with R358Q
For B5, the Michaelis-Menten constant (Km) in data set [9] (R358Q) turned out to be 4.6 ± 0.7 µM; in [10] (R358Q), 10 ± 5 µM; in data set [11] (R358Q), 2.6 ± 1.4 µM. Further, the kcat in data set [9] (R358Q) was 0.00717 ± 0.000333 s⁻¹; in [10] (R358Q), 0.000933 s⁻¹; in [11] (R358Q), 0.00967 ± 0.0015 s⁻¹. Moreover, the figures for the specificity constant (kcat/Km) in [10] (R358Q) and in data set [11] (R358Q) were 83.3 M⁻¹ s⁻¹ and 3670 M⁻¹ s⁻¹, respectively.

B6: Blue-T70C-b5: T70C-b5 labeled with the proprietary NanoTemper BLUE fluorescent dye (protein, UniProt P00167 2-134, looked up, variant T70C)
Cytochrome b5: AEQSDEAVKYYTLEEIQKHNHSKSTWLILHHKVYDLTKFLEEHPGGEEVLREQAGGDATENFEDVGHSCDAREMSKTFIIGELHPDDRPKLNKPPETLITTIDSSSSWWTNWVIPAISAVAVALMYRLYMAED
modifications: NanoTemper BLUE fluorescent dye label
For B6, the “stimulation of lyase activities” value with WT P450 17A1 [12] is “stimulated the lyase reactions”.

Source of the values: PMC8080067, “Tight binding of cytochrome b5 to cytochrome P450 17A1 is a critical feature of stimulation of C21 steroid lyase activity and androgen synthesis” (The Journal of Biological Chemistry, 2021).
